The text below walks through data of patent US12352767B2, “Method of treating cognitive decline associated with neurological diseases based on a decrease in FLT4 expression or activity” (University of Virginia Patent Foundation, priority 2018, dated 2025).

“Also recorded” adds a separate entry of the source.

The subject of test [1] is meningeal lymphatic vessels. Nature of the test: Meningeal whole-mount immunostaining (LYVE-1/CD31): lymphatic vessel area and diameter, blood vessel coverage. As to the method:
Selective ablation of the meningeal lymphatic vessels was achieved by i.c.m. injection and transcranial photoconversion of Visudyne® (verteporfin for injection, Valeant Ophtalmics). Visudyne was reconstituted following manufacturer instructions and 5 μL was injected i.c.m. following the previously described procedure. […] Each spot was irradiated with a light dose of 50 J/cm^2 at an intensity of 600 mW/cm^2 for a total of 83 s. Controls were injected with the same volume of Visudyne (without the photoconversion step) or sterile saline plus photoconversion (vehicle/photoconversion). The scalp skin was then sutured, the mice were subcutaneously injected with ketoprofen (2 mg/Kg) and allowed to recover on a heating pad until fully awake.
A hydrogel of 1.4% hyaluronic acid and 3% methylcellulose alone (vehicle) or with 200 ng/mL of encapsulated human VEGF-C (PeproTech) or VEGF-C156S (R&D Systems) was prepared as described elsewhere^49. Briefly, lyophilized, sterile methylcellulose (4000 cP, Sigma-Aldrich) and sterile hyaluronic acid (1500-1800 kDa, Sigma-Aldrich) were sequentially dissolved in sterile 0.1 M phosphate buffered saline (PBS) at 4° C. overnight. Lyophilized VEGF-C or VEGF-C156S were resuspended as particulate at 2000 ng/mL in 0.5% sterile methylcellulose in PBS. The particulate solution, or vehicle 0.5% methylcellulose, was mixed into the hydrogel pre-solution at 1:10, and loaded into a syringe for gelation at 37° C. […] The hydrogels were prepared on the day of the experiment and kept warm inside the individual syringes until applied onto the mouse's skull. […] An incision was made in the scalp skin and the skull was thinned at the junction of all sinuses and above the transverse sinus. The shear-thinning properties of the polymers allowed the extrusion of 100 μL of each hydrogel solution from the syringe into the thinned skull surface. The scalp skin was then sutured on top of the solidified hydrogel, the mice were subcutaneously injected with ketoprofen (2 mg/Kg) and allowed to recover on a heating pad until fully awake.
Mice were given a lethal dose of anesthetics by intraperitoneal (i.p.) injection of Euthasol (10% v/v in saline). When needed, CSF was collected from the cisterna magna using a 0.5 mm diameter borosilicate glass pipette with internal filament and immediately stored at −80° C. Mice were then transcardially perfused with ice cold PBS with heparin (10 U/mL). Deep cervical lymph nodes were dissected and drop fixed in 4% paraformaldehyde (PFA) for 12 hours at 4° C. After stripping the skin and muscle from the bone the head was collected and drop fixed in 4% PFA. […] The brains were kept in 4% PFA for additional 24 hours (48 hours in total). […]

Test [2] relates to meningeal lymphatic drainage. Nature of the test: Drainage of CSF tracer (OVA-A647) into deep cervical lymph nodes. It counts as in vivo, mice. Here is the method: (§1) Mice were anaesthetized by intraperitoneal (i.p.) injection of a mixed solution of ketamine (100 mg/Kg) and xylazine (10 mg/Kg) in saline. The skin of the neck was shaved and cleaned with iodine and 70% ethanol, ophthalmic solution placed on the eyes to prevent drying and the mouse's head was secured in a stereotaxic frame. After making a skin incision, the muscle layers were retracted and the cisterna magna exposed. Using a Hamilton syringe (coupled to a 33-gauge needle), the volume of the desired tracer solution was injected into the CSF-filled cisterna magna compartment. For brain CSF influx and lymphatic drainage experiments, 2 or 5 μL of Alexa Fluor® 594 or 647 conjugated OVA (Thermo Fisher Scientific), at 0.5 mg/mL in artificial CSF (#597316, Harvard Apparatus U.K.), were injected at a rate of 2.5 μL/min. After injecting, the syringe was left in place for additional 2 min to prevent back-flow of CSF.

The subject of a further test is brain parenchyma. Nature of the test: Brain perfusion/influx by CSF tracer OVA-A647 (brain sections). It counts as in vivo, mice. Conditions: old mice. As to the method:
as §1

For test [3], the system named is meningeal lymphatic vessels. Conditions: recombinant VEGF-C, previously shown (ref. 4); cited from earlier work.
The target of another test is VEGFR3 (Homo sapiens, UniProt P35916). The conditions noted are these: VEGFR3 vs VEGFR2 (refs. 34, 36); cited from earlier work.
Chain of VEGFR3 (P35916 25-1363, species assumed): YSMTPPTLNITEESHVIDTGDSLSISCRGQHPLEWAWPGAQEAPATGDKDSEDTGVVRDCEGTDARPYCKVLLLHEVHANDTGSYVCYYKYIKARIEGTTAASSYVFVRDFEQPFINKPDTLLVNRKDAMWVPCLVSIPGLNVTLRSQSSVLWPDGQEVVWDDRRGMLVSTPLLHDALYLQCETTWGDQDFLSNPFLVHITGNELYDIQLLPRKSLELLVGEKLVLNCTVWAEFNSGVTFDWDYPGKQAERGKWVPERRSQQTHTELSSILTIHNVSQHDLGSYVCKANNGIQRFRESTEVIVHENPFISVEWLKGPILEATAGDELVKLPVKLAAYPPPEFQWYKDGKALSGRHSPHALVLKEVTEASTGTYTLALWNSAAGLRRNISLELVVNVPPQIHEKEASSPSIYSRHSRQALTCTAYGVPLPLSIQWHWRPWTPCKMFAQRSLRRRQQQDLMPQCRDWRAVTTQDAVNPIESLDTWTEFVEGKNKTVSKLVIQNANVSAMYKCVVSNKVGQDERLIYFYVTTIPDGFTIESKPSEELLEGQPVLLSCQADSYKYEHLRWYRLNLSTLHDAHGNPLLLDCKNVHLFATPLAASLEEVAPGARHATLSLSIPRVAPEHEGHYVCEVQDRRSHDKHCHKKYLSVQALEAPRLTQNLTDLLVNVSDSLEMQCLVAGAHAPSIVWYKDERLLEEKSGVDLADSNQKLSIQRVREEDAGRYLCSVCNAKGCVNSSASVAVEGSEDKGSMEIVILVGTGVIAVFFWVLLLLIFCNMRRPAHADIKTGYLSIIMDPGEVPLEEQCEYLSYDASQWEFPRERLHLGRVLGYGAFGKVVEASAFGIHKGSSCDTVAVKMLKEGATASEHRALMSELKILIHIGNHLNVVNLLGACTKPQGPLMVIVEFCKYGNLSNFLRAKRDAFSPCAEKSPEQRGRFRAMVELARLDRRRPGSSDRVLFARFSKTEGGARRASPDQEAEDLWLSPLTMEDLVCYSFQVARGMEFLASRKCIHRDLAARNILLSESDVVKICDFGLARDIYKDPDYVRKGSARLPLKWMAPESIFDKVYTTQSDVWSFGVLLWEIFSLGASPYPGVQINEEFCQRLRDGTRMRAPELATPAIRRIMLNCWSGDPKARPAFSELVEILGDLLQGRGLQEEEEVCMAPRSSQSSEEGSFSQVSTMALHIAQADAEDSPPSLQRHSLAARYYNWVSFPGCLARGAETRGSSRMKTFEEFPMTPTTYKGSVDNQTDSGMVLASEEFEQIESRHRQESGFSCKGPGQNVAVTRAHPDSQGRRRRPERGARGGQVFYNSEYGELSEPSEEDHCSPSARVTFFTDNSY

B1: VEGF-C: recombinant human VEGF-C (PeproTech) encapsulated in hyaluronic acid/methylcellulose hydrogel for transcranial delivery (protein, UniProt P49767 112-227, looked up)
Vascular endothelial growth …: AHYNTEILKSIDNEWRKTQCMPREVCIDVGKEFGVATNTFFKPPCVSVYRCGGCCNSEGLQCMNTSTSYLSKTLFEITVPLSQGPKPVTISFANHTSCRCMSKLDVYRQVHSIIRR
modifications: in hyaluronic acid/methylcellulose hydrogel
notes: recombinant human VEGF-C (PeproTech) encapsulated in hyaluronic acid/methylcellulose hydrogel for transcranial delivery
Take B1: the “meningeal lymphatic vessel diameter (superior sagittal sinus)” value in test [1] (young/adult (3 months) and old (20-24 months) mice, hydrogel VEGF-C 200 ng/mL transcranial, 4 weeks, vs vehicle) is listed as “increased diameter; also recorded: significant increase”. Moreover, the “meningeal lymphatic function (OVA-A647 drainage into dCLNs)” value in test [2] (old mice, transcranial hydrogel VEGF-C vs vehicle) is on record as “significant increase; also recorded: increased drainage”; in test [2] (young-adult mice, transcranial hydrogel VEGF-C), “did not respond”. Also, the “brain perfusion by CSF macromolecules (OVA-A647 influx)” value with brain parenchyma (transcranial hydrogel VEGF-C) is reported as “enhanced brain perfusion; also recorded: significantly increased”. In addition, the “diameter of meningeal lymphatic vessels” value in test [3] is listed as “increases the diameter”.

B2: VEGF-C156S: mutant VEGF-C protein that binds specifically to VEGFR3, delivered in hydrogel transcranially (protein, UniProt P49767 112-227, looked up, variant C156S)
Vascular endothelial growth …: AHYNTEILKSIDNEWRKTQCMPREVCIDVGKEFGVATNTFFKPPSVSVYRCGGCCNSEGLQCMNTSTSYLSKTLFEITVPLSQGPKPVTISFANHTSCRCMSKLDVYRQVHSIIRR
modifications: delivered in hydrogel
Consider B2, for which the “meningeal lymphatic diameter (LYVE-1+ vessels, superior sagittal sinus)” value in test [1] (old mice, hydrogel VEGF-C156S 200 ng/mL transcranial vs vehicle) is “significant increase; also recorded: increased diameter”. In addition, in test [2] (old mice, transcranial VEGF-C156S vs vehicle), the “drainage of tracer from the CSF (OVA-A647 area fraction in dCLNs)” value was “significant increase”. Besides, the “paravascular influx of tracer into the brain (OVA-A647 area fraction)” value with brain parenchyma (transcranial VEGF-C156S) is reported as “significant increase”. Further, the receptor binding specificity entry in the test with VEGFR3 is “binds specifically to VEGFR3 and spares its effects on VEGFR2”.
